PMC4712133 (2016)
No end group written: not given here.

B1: lactoferrin purified from human milk (natural protein)
chain: GRRRSVQWCAVSQPEATKCFQWQRNMRKVRGPPVSCIKRDSPIQCIQAIAENRADAVTLDGGFIYEAGLAPYKLRPVAAEVYGTERQPRTHYYAVAVVKKGGSFQLNELQGLKSCHTGLRRTAGWNVPIGTLRPFLNWTGPPEPIEAAVARFFSASCVPGADKGQFPNLCRLCAGTGENKCAFSSQEPYFSYSGAFKCLRDGAGDVAFIRESTVFEDLSDEAERDEYELLCPDNTRKPVDKFKDCHLARVPSHAVVARSVNGKEDAIWNLLRQAQEKFGKDKSPKFQLFGSPSGQKDLLFKDSAIGFSRVPPRIDSGLYLGSGYFTAIQNLRKSEEEVAARRARVVWCAVGEQELRKCNQWSGLSEGSVTCSSASTTEDCIALVLKGEADAMSLDGGYVYTAGKCGLVPVLAENYKSQQSSDPDPNCVDRPVEGYLAVAVVRRSDTSLTWNSVKGKKSCHTAVDRTAGWNIPMGLLFNQTGSCKFDEYFSQSCAPGSDPRSNLCALCIGDEQGENKCVPNSNERYYGYTGAFRCLAENAGDVAFVKDVTVLQNTDGNNNEAWAKDLKLADFALLCLDGKRKPVTEARSCHLAMAPNHAVVSRMDKVERLKQVLLHQQAKFGRNGSDCPDKFCLFQSETKNLLFNDNTECLARLHGKTTYEKYLGPQYVAGITNLKKCSTSPLLEACEFLRK
B2: midkine (natural protein)
chain: VAKKKDKVKKGGPGSECAEWAWGPCTPSSKDCGVGFREGTCGAQTQRIRCRVPCNWKKEFGADCKYKFENWGACDGGTGTKVRQGTLKKARYNAQCQETIRVTKPCTPKTKAKAKAKKGKGKD
B3: secretory leukocyte peptidase inhibitor (SLPI), recombinant human (natural protein)
chain: SGKSFKAGVCPPKKSAQCLRYKKPECQSDWQCPGKKRCCPDTCGIKCLDPVDTPNPTRRKPGKCPVTYGQCLMLNPPNFCEMDGQCKRDLKCCMGMCGKSCVSPVKA

Target: T1, osteopontin (OPN), recombinant human (human, UniProt P10451 17-314)
T1 sequence (P10451 17-314): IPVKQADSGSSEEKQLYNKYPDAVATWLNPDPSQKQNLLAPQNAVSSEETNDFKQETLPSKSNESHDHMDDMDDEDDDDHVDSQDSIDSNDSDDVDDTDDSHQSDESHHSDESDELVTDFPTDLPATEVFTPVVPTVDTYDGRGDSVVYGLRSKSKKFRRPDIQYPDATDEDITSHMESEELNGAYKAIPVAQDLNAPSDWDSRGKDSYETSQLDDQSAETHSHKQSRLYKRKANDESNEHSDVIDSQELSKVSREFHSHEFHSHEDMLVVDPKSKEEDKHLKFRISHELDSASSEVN
Assay: SPR

Compared with B1, B2 is 93-fold lower in Kd: 2500 nM for the first, 27 nM for the second. The second binds more tightly here.

Compared with B3, GIINTLQKYYCRVRGGRCAVLSCLPKEEQIGKCSTRGRKCCRRKK (natural protein, ends and bridges not checked; cysteine pairing not given here) [human beta defensin-3 (hBD-3)] is 1.8-fold higher in Kd: 430 nM for the first, 790 nM for the second.

Target: T1, osteopontin (OPN), recombinant human
Assay: SPR
Remark: another data set of the same source

Going from B1 to B3, the koff falls from 0.01 s⁻¹ to 0.0016 s⁻¹ (6.2-fold).

Binder GIINTLQKYYCRVRGGRCAVLSCLPKEEQIGKCSTRGRKCCRRKK (natural protein, ends and bridges not checked; cysteine pairing not given here) [human beta defensin-3 (hBD-3)] has a koff of 0.02 s⁻¹.
